Measured values: US20200140562A1 (Innovent, published 2020)
Read-outs that look alike come from different tables or passages of the source. Values belong to the binder of their own block, whether it stands above or below them.

Key:
[1] = biological target: T1, human OX40 on cells (CHO-hOX40, 293HEK-hOX40, Jurkat-hOX40, activated primary CD4+ T cells) (human, UniProt P43489 29-277); experiment: cell-based or functional assay
T1 sequence (looked up): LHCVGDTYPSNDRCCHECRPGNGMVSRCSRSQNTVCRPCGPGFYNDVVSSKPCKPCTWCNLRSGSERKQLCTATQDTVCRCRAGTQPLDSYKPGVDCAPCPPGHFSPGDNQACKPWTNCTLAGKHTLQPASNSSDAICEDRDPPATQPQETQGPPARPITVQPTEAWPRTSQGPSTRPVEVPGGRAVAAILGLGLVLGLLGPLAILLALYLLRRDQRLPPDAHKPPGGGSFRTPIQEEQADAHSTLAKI

[2] = biological target: T1, human OX40 on cells (CHO-hOX40, …); experiment: flow cytometry, CHO-hOX40, 100 nM
[3] = biological target: T1, human OX40 on cells (CHO-hOX40, …); experiment: flow cytometry, 293HEK-hOX40, 8 nM
[4] = biological target: T1, human OX40 on cells (CHO-hOX40, …); experiment: flow cytometry, 293HEK-hOX40, 40 nM
[5] = biological target: T1, human OX40 on cells (CHO-hOX40, …); experiment: flow cytometry, 293HEK-hOX40, 1.6 nM
[6] = biological target: T1, human OX40 on cells (CHO-hOX40, …); experiment: flow cytometry, 293HEK-hOX40, 200 nM
[7] = biological target: T2, human OX40_Fc (R&D Systems) (human, UniProt P43489 29-216); experiment: BLI, IgG1 on tip, hOX40-Fc 50 nM, avid
T2 construct: Bought

[8] = biological target: T3, mouse OX40Fc (Acro Biosystems) (mouse, UniProt P47741 20-211, limits assumed); experiment: BLI, IgG1 on tip, mouse OX40-Fc 100 nM, avid
T3 construct: Bought; not shown: Fc
T3 sequence (looked up): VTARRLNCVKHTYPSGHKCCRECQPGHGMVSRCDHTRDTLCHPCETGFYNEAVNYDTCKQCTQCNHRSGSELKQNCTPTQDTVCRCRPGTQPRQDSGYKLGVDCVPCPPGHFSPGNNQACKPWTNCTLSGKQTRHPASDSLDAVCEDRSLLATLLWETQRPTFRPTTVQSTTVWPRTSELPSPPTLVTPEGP

[9] = biological target: T1, human OX40 on cells (CHO-hOX40, …); experiment: flow cytometry, MFI on CHO-hOX40 over wild-type CHO
[10] = biological target: T1, human OX40 on cells (CHO-hOX40, …); experiment: flow cytometry, activated CD4+ T cells, donor 1, 100 nM
[11] = biological target: T1, human OX40 on cells (CHO-hOX40, …); experiment: flow cytometry, activated CD4+ T cells, donor 2, 100 nM
[12] = biological target: T1, human OX40 on cells (CHO-hOX40, …); experiment: flow cytometry, CHO-hOX40, 100 nM blocker, competitor OX40L-hFc-fluorescein
[13] = biological target: T1, human OX40 on cells (CHO-hOX40, …); experiment: cell-based or functional assay; remark: listed apart in the source
[14] = biological target: T1, human OX40 on cells (CHO-hOX40, …); experiment: flow cytometry, CHO-hOX40, 100 nM; remark: listed apart in the source
[15] = biological target: T2, human OX40_Fc (R&D Systems); experiment: BLI, IgG1 on tip, hOX40-Fc 50 nM, avid; remark: listed apart in the source
[16] = biological target: T4, cyno OX40_Fc (Acro Biosystems) (cyno); experiment: BLI, IgG1 on tip, cyno OX40-Fc 100 nM, avid
T4 construct: Bought

[17] = biological target: T3, mouse OX40Fc (Acro Biosystems); experiment: BLI, IgG1 on tip, mouse OX40-Fc 100 nM, avid; remark: listed apart in the source
[18] = biological target: T1, human OX40 on cells (CHO-hOX40, …); experiment: flow cytometry, MFI on CHO-hOX40 over wild-type CHO; remark: listed apart in the source
[19] = biological target: T1, human OX40 on cells (CHO-hOX40, …); experiment: flow cytometry, CHO-hOX40
[20] = biological target: T1, human OX40 on cells (CHO-hOX40, …); experiment: flow cytometry, CHO-hOX40, 25 nM
[21] = biological target: T1, human OX40 on cells (CHO-hOX40, …); experiment: flow cytometry, CHO-hOX40, 50 nM
[22] = biological target: T1, human OX40 on cells (CHO-hOX40, …); experiment: flow cytometry, CHO-hOX40, 100 nM; remark: listed apart in the source
[23] = biological target: T1, human OX40 on cells (CHO-hOX40, …); experiment: flow cytometry, CHO-hOX40, 200 nM
[24] = biological target: T1, human OX40 on cells (CHO-hOX40, …); experiment: flow cytometry, CHO-hOX40, 12.5 nM
[25] = biological target: T1, human OX40 on cells (CHO-hOX40, …); experiment: flow cytometry, CHO-hOX40, 6.25 nM
[26] = biological target: T1, human OX40 on cells (CHO-hOX40, …); experiment: flow cytometry, CHO-hOX40, 3.125 nM
[27] = biological target: T1, human OX40 on cells (CHO-hOX40, …); experiment: flow cytometry, CHO-hOX40, 1.5625 nM
[28] = biological target: T1, human OX40 on cells (CHO-hOX40, …); experiment: flow cytometry, CHO-hOX40, 0.78125 nM
[29] = biological target: T1, human OX40 on cells (CHO-hOX40, …); experiment: flow cytometry, CHO-hOX40, 0.390625 nM
[30] = biological target: T1, human OX40 on cells (CHO-hOX40, …); experiment: flow cytometry, CHO-hOX40, 0.1953125 nM
[31] = biological target: T1, human OX40 on cells (CHO-hOX40, …); experiment: flow cytometry, CHO-hOX40, 0.09765625 nM
[32] = biological target: T1, human OX40 on cells (CHO-hOX40, …); experiment: flow cytometry, CHO-hOX40, 0.024414063 nM
[33] = biological target: T1, human OX40 on cells (CHO-hOX40, …); experiment: flow cytometry, CHO-hOX40, 0.048828125 nM
[34] = biological target: T4, cyno OX40_Fc (Acro Biosystems); experiment: BLI, IgG1 on tip, cyno OX40-Fc 100 nM, avid; remark: listed apart in the source

B1: ADI-20096, IgG1 format (antibody, V domains shown)
VH: EVQLVESGGGLVKPGGSLRLSCAASGFTFSSYSMNWVRQAPGKGLEWVSSISSSSNYIYYADSVKGRFTISRDNAKNSLYLQMNSLRAEDTAVYYCARGAPLGYSWEYFDLWGRGTLVTVSS
VL: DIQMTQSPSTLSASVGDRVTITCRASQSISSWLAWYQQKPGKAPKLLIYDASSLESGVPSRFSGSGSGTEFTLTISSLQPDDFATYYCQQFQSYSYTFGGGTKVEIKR
notes: Made in yeast
NFkB-Luc fold change in Jurkat stimulated by PHA+ anti-CD28 [1]: 4.57 fold over IgG4 control | NFkB-Luc fold change in Jurkat stimulated by anti-CD3+ anti-CD28 [1]: 5.12 fold over IgG4 control | CHO-OX40 binding intensity (MFI) [2]: 133000 MFI | MFI [3]: 1.1e+06 MFI | MFI [4]: 1.82e+06 MFI | MFI [5]: 417000 MFI | MFI [6]: 1.84e+06 MFI | Kd [7]: 3.36 nM | Kd [8]: 5.41 nM | Fold difference [9]: 1970 fold | MFI [10]: 54600 MFI | MFI [11]: 75400 MFI | MFI of OX40L signal on CHO-OX40 cells [12]: 31900 MFI

B4: ADI-20048, IgG1 format (antibody, V domains shown)
VH: QVQLQESGPGLVKPSETLSLTCTVSGGSISSYYWSWIRQPPGKGLEWIGYIYSSGSTNYNPSLKSRVTISVDTSKNQFSLKLSSVTAADTAVYYCARDAPGGSSYQDYYMDVWGKGTTVTVSS
VL: EIVLTQSPATLSLSPGERATLSCRASQSVSSYLAWFQQKPGQAPRLLIYDASNRATGIPARFSGSGSGTDFTLTISSLEPEDFAVYYCQQAFSMPPTFGGGTKVEIKR
notes: Made in yeast
NFkB-Luc fold change in Jurkat stimulated by PHA+ anti-CD28 [1]: 3.63 fold over IgG4 control | NFkB-Luc fold change in Jurkat stimulated by anti-CD3+ anti-CD28 [1]: 5.77 fold over IgG4 control | CHO-OX40 binding intensity (MFI) [2]: 143000 MFI | MFI [3]: 1.73e+06 MFI | MFI [4]: 1.85e+06 MFI | MFI [5]: 977000 MFI | MFI [6]: 1.7e+06 MFI | Kd [7]: 3.68 nM | Kd [34]: 9.86 nM | Kd [8]: 3.76 nM | Fold difference [9]: 1470 fold | MFI [10]: 43100 MFI | MFI [11]: 62600 MFI | MFI of OX40L signal on CHO-OX40 cells [12]: 34300 MFI

Further lines, results first:

EC50, NFkB-luciferase reporter in Jurkat-hOX40 mixed with Raji cells [13]: 0.174 nM | CHO-OX40 binding intensity (MFI) [14]: 181000 MFI | Kd [15]: 0.273 nM | Kd [16]: 1.09 nM | Kd [17]: 8.98 nM | Fold difference [18]: 1550 fold
B2: ADI-23515, IgG1 format (antibody)
heavy: not shown
light: EIVLTQSPGTLSLSPGERATLSCRASQSVSSSYLAWYQQKPGQAPRLLIYGASSRATGIPDRFSGSGSGTDFTLTISRLEPEDFAVYYCQQSERSPFTFGGGTKVEIKRTVAAPSVFIFPPSDEQLKSGTASVVCLLNNFYPREAKVQWKVDNALQSGNSQESVTEQDSKDSTYSLSSTLTLSKADYEKHKVYACEVTHQGLSSPVTKSFNRGEC
notes: Made in yeast or CHO cells; also called ADI-23515-g1

EC50 [19]: 8.37 nM | MFI [20]: 2.16e+06 MFI | MFI [21]: 1.59e+06 MFI | MFI [22]: 2.39e+06 MFI | MFI [23]: 2.55e+06 MFI | MFI [24]: 1.52e+06 MFI | MFI [25]: 1.06e+06 MFI | MFI [26]: 660000 MFI | MFI [27]: 334000 MFI | MFI [28]: 188000 MFI | MFI [29]: 101000 MFI | MFI [30]: 49500 MFI | MFI [31]: 28200 MFI | MFI [32]: 14600 MFI | MFI [33]: 15400 MFI
B3: Hu106-222 (IgG2) (antibody, V domains shown)
VH: QVQLVQSGSELKKPGASVKVSCKASGYTFTDYSMHWVRQAPGQGLKWMGWINTETGEPTYADDFKGRFVFSLDTSVSTAYLQISSLKAEDTAVYYCANPYYDYVSYYAMDYWGQGTLVTVSS
VL: DIQMTQSPSSLSASVGDRVTITCKASQDVSTAVAWYQQKPGKAPKLLIYSASYLYTGVPSRFSGSGSGTDFTFTISSLQPEDIATYYCQQHYSTPRTFGQGTKLEIK
